Results as given in patent US8840891 (RSR, dated 2014).
Like-named read-outs stand apart in the source and are kept apart here. Values belong to the molecule of their own block, whether it stands above or below them.

Tests used:
Assay in all cases: cell-based or functional assay
[1] = molecular target: wild type human TSHR (human) (UniProt P16473)
[2] = molecular target: TSHR with Ile60 mutated to Alanine (human) (UniProt P16473)
[3] = molecular target: wild type human TSHR (human) (UniProt P16473); remark: listed apart in the source
[4] = molecular target: TSHR with Lys183 mutated to Alanine (human) (UniProt P16473)
[5] = molecular target: TSHR with Gln235 mutated to Alanine (human) (UniProt P16473)
[6] = molecular target: wild type human TSHR (human) (UniProt P16473); remark: listed apart in the source
[7] = molecular target: wild type human TSHR (thyrotropin receptor) expressed on CHO cells (human) (UniProt P16473)
[8] = molecular target: TSHR with Arg274 mutated to Alanine expressed on CHO cells (human) (UniProt P16473)
[9] = molecular target: wild type human TSHR (thyrotropin receptor) expressed on CHO cells (human) (UniProt P16473); remark: listed apart in the source
[10] = molecular target: wild type human TSHR (thyrotropin receptor) expressed on CHO cells (human) (UniProt P16473); remark: listed apart in the source
[11] = molecular target: TSHR with Lys250 mutated to Alanine expressed on CHO cells (human) (UniProt P16473)
[12] = molecular target: wild type human TSHR (thyrotropin receptor) expressed on CHO cells (human) (UniProt P16473); remark: listed apart in the source
[13] = molecular target: TSHR with Thr257 mutated to Alanine expressed on CHO cells (human) (UniProt P16473)
[14] = molecular target: TSHR with Asp203 mutated to Alanine expressed on CHO cells (human) (UniProt P16473)
[15] = molecular target: wild type human TSHR (thyrotropin receptor) expressed on CHO cells (human) (UniProt P16473); remark: listed apart in the source

Molecule: 5C9 IgG (antibody)
cyclic AMP; 5C9 0.01 µg/mL + TSH (fmol/cell well) [1]: 8020 | cyclic AMP; 5C9 0.1 µg/mL + TSH (fmol/cell well) [1]: 7100 | cyclic AMP; 5C9 1.0 µg/mL + TSH (fmol/cell well) [1]: 1570 | cyclic AMP; 5C9 10 µg/mL + TSH (fmol/cell well) [1]: 1770 | cyclic AMP; 5C9 100 µg/mL + TSH (fmol/cell well) [1]: 1730 | cyclic AMP; 5C9 100 µg/mL only (fmol/cell well) [1]: 61 | Mutated/wild type (%); 5C9 0.01 µg/mL + TSH [2]: 236% | Mutated/wild type (%); 5C9 0.1 µg/mL + TSH [2]: 164% | Mutated/wild type (%); 5C9 1.0 µg/mL + TSH [2]: 210% | Mutated/wild type (%); 5C9 10 µg/mL + TSH [2]: 68% | Mutated/wild type (%); 5C9 100 µg/mL + TSH [2]: 181% | Mutated/wild type (%); 5C9 100 µg/mL only [2]: 426% | cyclic AMP; 5C9 0.01 µg/mL + TSH (fmol/cell well) [2]: 19000 | cyclic AMP; 5C9 0.1 µg/mL + TSH (fmol/cell well) [2]: 11600 | cyclic AMP; 5C9 1.0 µg/mL + TSH (fmol/cell well) [2]: 3290 | cyclic AMP; 5C9 10 µg/mL + TSH (fmol/cell well) [2]: 1210 | cyclic AMP; 5C9 100 µg/mL + TSH (fmol/cell well) [2]: 3130 | cyclic AMP; 5C9 100 µg/mL only (fmol/cell well) [2]: 260 | cyclic AMP; 5C9 0.01 µg/mL + TSH (fmol/cell well) [3]: 18000 | cyclic AMP; 5C9 0.1 µg/mL + TSH (fmol/cell well) [3]: 11500 | cyclic AMP; 5C9 1.0 µg/mL + TSH (fmol/cell well) [3]: 3490 | cyclic AMP; 5C9 10 µg/mL + TSH (fmol/cell well) [3]: 1230 | cyclic AMP; 5C9 100 µg/mL + TSH (fmol/cell well) [3]: 1460 | cyclic AMP; 5C9 100 µg/mL only (fmol/cell well) [3]: 384 | Mutated/wild type (%); 5C9 0.01 µg/mL + TSH [4]: 130% | Mutated/wild type (%); 5C9 0.1 µg/mL + TSH [4]: 211% | Mutated/wild type (%); 5C9 1.0 µg/mL + TSH [4]: 418% | Mutated/wild type (%); 5C9 10 µg/mL + TSH [4]: 618% | Mutated/wild type (%); 5C9 100 µg/mL + TSH [4]: 786% | Mutated/wild type (%); 5C9 100 µg/mL only [4]: 195% | cyclic AMP; 5C9 0.01 µg/mL + TSH (fmol/cell well) [4]: 23300 | cyclic AMP; 5C9 0.1 µg/mL + TSH (fmol/cell well) [4]: 24300 | cyclic AMP; 5C9 1.0 µg/mL + TSH (fmol/cell well) [4]: 14600 | cyclic AMP; 5C9 10 µg/mL + TSH (fmol/cell well) [4]: 7570 | cyclic AMP; 5C9 100 µg/mL + TSH (fmol/cell well) [4]: 11400 | cyclic AMP; 5C9 100 µg/mL only (fmol/cell well) [4]: 747 | Mutated/wild type (%); 5C9 0.01 µg/mL + TSH [5]: 244% | Mutated/wild type (%); 5C9 0.1 µg/mL + TSH [5]: 96% | Mutated/wild type (%); 5C9 1.0 µg/mL + TSH [5]: 95% | Mutated/wild type (%); 5C9 10 µg/mL + TSH [5]: 192% | Mutated/wild type (%); 5C9 100 µg/mL + TSH [5]: 97% | Mutated/wild type (%); 5C9 100 µg/mL only [5]: 215% | cyclic AMP; 5C9 0.01 µg/mL + TSH (fmol/cell well) [5]: 17500 | cyclic AMP; 5C9 0.1 µg/mL + TSH (fmol/cell well) [5]: 7440 | cyclic AMP; 5C9 1.0 µg/mL + TSH (fmol/cell well) [5]: 2420 | cyclic AMP; 5C9 10 µg/mL + TSH (fmol/cell well) [5]: 1020 | cyclic AMP; 5C9 100 µg/mL + TSH (fmol/cell well) [5]: 727 | cyclic AMP; 5C9 100 µg/mL only (fmol/cell well) [5]: 256 | cyclic AMP; 5C9 0.01 µg/mL + TSH (fmol/cell well) [6]: 7180 | cyclic AMP; 5C9 0.1 µg/mL + TSH (fmol/cell well) [6]: 7780 | cyclic AMP; 5C9 1.0 µg/mL + TSH (fmol/cell well) [6]: 2540 | cyclic AMP; 5C9 10 µg/mL + TSH (fmol/cell well) [6]: 532 | cyclic AMP; 5C9 100 µg/mL + TSH (fmol/cell well) [6]: 747 | cyclic AMP; 5C9 100 µg/mL only (fmol/cell well) [6]: 119

Cyclic AMP produced; 5C9 0.01 µg/mL + TSH (fmol/cell well) [7]: 21200 | Cyclic AMP produced; 5C9 0.1 µg/mL + TSH (fmol/cell well) [7]: 8640 | Cyclic AMP produced; 5C9 1.0 µg/mL + TSH (fmol/cell well) [7]: 915 | Cyclic AMP produced; 5C9 10 µg/mL + TSH (fmol/cell well) [7]: 752 | Cyclic AMP produced; 5C9 100 µg/mL + TSH (fmol/cell well) [7]: 496 | Cyclic AMP produced; 5C9 100 µg/mL only (fmol/cell well) [7]: 460 | Cyclic AMP produced; 5C9 0.01 µg/mL + TSH (fmol/cell well) [8]: 9560 | Cyclic AMP produced; 5C9 0.1 µg/mL + TSH (fmol/cell well) [8]: 1320 | Cyclic AMP produced; 5C9 1.0 µg/mL + TSH (fmol/cell well) [8]: 177 | Cyclic AMP produced; 5C9 10 µg/mL + TSH (fmol/cell well) [8]: 108 | Cyclic AMP produced; 5C9 100 µg/mL + TSH (fmol/cell well) [8]: 17 | Cyclic AMP produced; 5C9 100 µg/mL only (fmol/cell well) [8]: 34 | Mutated/wild type (%); 5C9 0.01 µg/mL + TSH [8]: 58% | Mutated/wild type (%); 5C9 0.1 µg/mL + TSH [8]: 26% | Mutated/wild type (%); 5C9 1.0 µg/mL + TSH [8]: 22% | Mutated/wild type (%); 5C9 10 µg/mL + TSH [8]: 16% | Mutated/wild type (%); 5C9 100 µg/mL + TSH [8]: 7% | Mutated/wild type (%); 5C9 100 µg/mL only [8]: 31% | Cyclic AMP produced; 5C9 0.01 µg/mL + TSH (fmol/cell well) [9]: 16300 | Cyclic AMP produced; 5C9 0.1 µg/mL + TSH (fmol/cell well) [9]: 5000 | Cyclic AMP produced; 5C9 1.0 µg/mL + TSH (fmol/cell well) [9]: 808 | Cyclic AMP produced; 5C9 10 µg/mL + TSH (fmol/cell well) [9]: 684 | Cyclic AMP produced; 5C9 100 µg/mL + TSH (fmol/cell well) [9]: 246 | Cyclic AMP produced; 5C9 100 µg/mL only (fmol/cell well) [9]: 111 | Cyclic AMP produced; 5C9 0.01 µg/mL + TSH (fmol/cell well) [10]: 15200 | Cyclic AMP produced; 5C9 0.1 µg/mL + TSH (fmol/cell well) [10]: 6300 | Cyclic AMP produced; 5C9 1.0 µg/mL + TSH (fmol/cell well) [10]: 643 | Cyclic AMP produced; 5C9 10 µg/mL + TSH (fmol/cell well) [10]: 286 | Cyclic AMP produced; 5C9 100 µg/mL + TSH (fmol/cell well) [10]: 158 | Cyclic AMP produced; 5C9 100 µg/mL only (fmol/cell well) [10]: 458 | Cyclic AMP produced; 5C9 0.01 µg/mL + TSH (fmol/cell well) [11]: 14500 | Cyclic AMP produced; 5C9 0.1 µg/mL + TSH (fmol/cell well) [11]: 8490 | Cyclic AMP produced; 5C9 1.0 µg/mL + TSH (fmol/cell well) [11]: 2570 | Cyclic AMP produced; 5C9 10 µg/mL + TSH (fmol/cell well) [11]: 862 | Cyclic AMP produced; 5C9 100 µg/mL + TSH (fmol/cell well) [11]: 96 | Cyclic AMP produced; 5C9 100 µg/mL only (fmol/cell well) [11]: 448 | Mutated/wild type (%); 5C9 0.01 µg/mL + TSH [11]: 95% | Mutated/wild type (%); 5C9 0.1 µg/mL + TSH [11]: 135% | Mutated/wild type (%); 5C9 1.0 µg/mL + TSH [11]: 399% | Mutated/wild type (%); 5C9 10 µg/mL + TSH [11]: 301% | Mutated/wild type (%); 5C9 100 µg/mL + TSH [11]: 61% | Mutated/wild type (%); 5C9 100 µg/mL only [11]: 98% | Cyclic AMP produced; 5C9 0.01 µg/mL + TSH (fmol/cell well) [12]: 18700 | Cyclic AMP produced; 5C9 0.1 µg/mL + TSH (fmol/cell well) [12]: 6140 | Cyclic AMP produced; 5C9 1.0 µg/mL + TSH (fmol/cell well) [12]: 1400 | Cyclic AMP produced; 5C9 10 µg/mL + TSH (fmol/cell well) [12]: 638 | Cyclic AMP produced; 5C9 100 µg/mL + TSH (fmol/cell well) [12]: 591 | Cyclic AMP produced; 5C9 100 µg/mL only (fmol/cell well) [12]: 566 | Cyclic AMP produced; 5C9 0.01 µg/mL + TSH (fmol/cell well) [13]: 21100 | Cyclic AMP produced; 5C9 0.1 µg/mL + TSH (fmol/cell well) [13]: 7940 | Cyclic AMP produced; 5C9 1.0 µg/mL + TSH (fmol/cell well) [13]: 1590 | Cyclic AMP produced; 5C9 10 µg/mL + TSH (fmol/cell well) [13]: 972 | Cyclic AMP produced; 5C9 100 µg/mL + TSH (fmol/cell well) [13]: 611 | Cyclic AMP produced; 5C9 100 µg/mL only (fmol/cell well) [13]: 637 | Mutated/wild type (%); 5C9 0.01 µg/mL + TSH [13]: 113% | Mutated/wild type (%); 5C9 0.1 µg/mL + TSH [13]: 129% | Mutated/wild type (%); 5C9 1.0 µg/mL + TSH [13]: 114% | Mutated/wild type (%); 5C9 10 µg/mL + TSH [13]: 152% | Mutated/wild type (%); 5C9 100 µg/mL + TSH [13]: 103% | Mutated/wild type (%); 5C9 100 µg/mL only [13]: 111% | Cyclic AMP produced; 5C9 0.01 µg/mL + TSH (fmol/cell well) [14]: 14700 | Cyclic AMP produced; 5C9 0.1 µg/mL + TSH (fmol/cell well) [14]: 13100 | Cyclic AMP produced; 5C9 1.0 µg/mL + TSH (fmol/cell well) [14]: 14700 | Cyclic AMP produced; 5C9 10 µg/mL + TSH (fmol/cell well) [14]: 12600 | Cyclic AMP produced; 5C9 100 µg/mL + TSH (fmol/cell well) [14]: 12700 | Cyclic AMP produced; 5C9 100 µg/mL only (fmol/cell well) [14]: 1370 | Mutated/wild type (%); 5C9 0.01 µg/mL + TSH [14]: 95% | Mutated/wild type (%); 5C9 0.1 µg/mL + TSH [14]: 296% | Mutated/wild type (%); 5C9 1.0 µg/mL + TSH [14]: 1090% | Mutated/wild type (%); 5C9 10 µg/mL + TSH [14]: 1570% | Mutated/wild type (%); 5C9 100 µg/mL + TSH [14]: 3450% | Mutated/wild type (%); 5C9 100 µg/mL only [14]: 415% | Cyclic AMP produced; 5C9 0.01 µg/mL + TSH (fmol/cell well) [15]: 15500 | Cyclic AMP produced; 5C9 0.1 µg/mL + TSH (fmol/cell well) [15]: 4440 | Cyclic AMP produced; 5C9 1.0 µg/mL + TSH (fmol/cell well) [15]: 1350 | Cyclic AMP produced; 5C9 10 µg/mL + TSH (fmol/cell well) [15]: 807 | Cyclic AMP produced; 5C9 100 µg/mL + TSH (fmol/cell well) [15]: 367 | Cyclic AMP produced; 5C9 100 µg/mL only (fmol/cell well) [15]: 330
B1: 5C9 IgG (human monoclonal autoantibody to the TSHR) (antibody, from another filing, V domains shown)
VH: EVQLVESGGGLIQPGGSLRLSCAASGFTVSSNYMSWVRQAPGKGLEWVSVTYSGGSTSYADSVKGRFTISRDNSKNTLYLQMNSLRAEDTAVYYCARGGRYCSSISCYARSGCDYWGQGTLVTVSS
VL: AIQMTQSPSSLSASVGDRVTITCRASQSISNYLNWYQQKPGKAPKLLIYAASSLQSGVPSRFSGSGSGTDFTLTISSLQPEDFATYYCQQSYSSPSTTFGQGTKLEIK
